Reference: doi:10.1101/2025.04.11.648320 (bioRxiv, 2025)
“And” between values parts separate entries of the source, which are not always exact repeats. Equal values may be shown once.

Target: the molecule itself
Assay: SDS-PAGE with immunoblot

B1: HIR2-HA expressed in Nicotiana benthamiana (natural protein, Arabidopsis thaliana, UniProt Q9SRH6 1-285, looked up)
chain: MGNLFCCVLVKQSDVAVKERFGKFQKVLNPGLQFVPWVIGDYVAGTLTLRLQQLDVQCETKTKDNVFVTVVASIQYRVLADKASDAFYRLSNPTTQIKAYVFDVIRACVPKLNLDDVFEQKNEIAKSVEEELDKAMTAYGYEILQTLIIDIEPDQQVKRAMNEINAAARMRVAASEKAEAEKIIQIKRAEGEAESKYLSGLGIARQRQAIVDGLRDSVLGFAGNVPGTSAKDVLDMVMMTQYFDTMRDIGATSKSSAVFIPHGPGAVSDVAAQIRNGLLQANNAS
- stoichiometry N: 2 and 4 and 6
